# Source: the RNAGym collection of RNA variant scans (doi:10.7554/elife.80360)
# B1: Hairpin Ribozyme (parent)
# chain: GUCCUCUUUCACGUGCGCGUGAAAGAGAGAAGUGAACCAGAGAAACACACGUUGUGGUAUAUUACCUGGUA
# Variants of: B1
# Test: self-cleavage, relative activity (ratio to wild type); higher = more cleavage; co-transcriptional
row,Variant,self-cleavage
1,A31G G69A,0.178
2,A31G G69U,0.258
3,A30U U63A,0.13
4,G32C A39C,0.135
5,G32C G56C,0.149
6,G32C G56A,0.13
7,U33A U63A,0.0514
8,U33A U63G,0.27
9,G32C C50U,0.0935
10,A31U U60A,0.0868
11,A31U G57C,0.155
12,A31U G57U,0.216
13,A31U G57A,0.169
14,G32A C46U,0.148
15,G32A C46G,0.103
16,G32U C38A,0.0741
17,U33A,0.147
18,U33C,0.161
19,U33A U52G,0.111
20,U33A U52C,0.122
21,U33C A47G,0.219
22,G32C A45G,0.0948
23,G32C A45C,0.145
24,A31C A49G,0.0512

row,Variant,self-cleavage
1,G32C G68U,0.135
2,G32C G68C,0.112
3,G32C C48U,0.169
4,U33C A44G,0.0547
5,U33C A44U,0.195
6,G32U U58C,0.116
7,A31C U33G,0.0823
8,A30U A41G,0.106
9,U33A C46G,0.176
10,U33A C46A,0.122
11,G32C C66A,0.0957
12,A31U U70A,0.0877
13,A31U U62G,0
14,A31U U62C,0.147
15,A31C U55G,0.1
16,A31C C66U,0.225
17,A31C U58C,0.247
18,A31C U58A,0.171
19,A31C U58G,0.131
20,A31G A49U,0.11
21,G32A U63A,0.132
22,A31U A39G,0.0984
23,A31C U60C,0.188
24,A31C A36C,0.123

row,Variant,self-cleavage
1,A31C A36G,0.124
2,A31U C38G,0
3,U33A G68A,0.161
4,U33A G68C,0.138
5,A31C C50G,0.0635
6,G32C C46U,0.109
7,G32U U60A,0.17
8,G32U U60C,0.0374
9,G32C U67C,0.105
10,G32U G56C,0.152
11,A31G U62A,0.127
12,A30U A39G,0.0918
13,A30U A39U,0.0553
14,A30U A39C,0.111
15,U33A A36U,0.0862
16,G32A G57C,0.117
17,A31C A39C,0.173
18,A31G U60C,0.836
19,G32U A39U,0.125
20,A31C A61C,0.194
21,A31C A61U,0.0706
22,A30U G56A,0.127
23,A30U G56U,0.149
24,U33C A45G,0.227

row,Variant,self-cleavage
1,A30U A59U,0.0496
2,A30U A59G,0.187
3,U33A C37A,0.112
4,A31U A41C,0.154
5,G32C U52G,0.125
6,A31G A45C,0.241
7,A31G A45U,0.236
8,A31G U55A,0.105
9,G32A A61U,0.154
10,U33A U62C,0.184
11,A31G U33C,0.0729
12,A31G U33A,0.165
13,A31C G32C,0.228
14,A30U U33G,0.138
15,G32C A35C,0
16,A30U A71U,0.101
17,A30U A71C,0.299
18,A31U G34U,0.167
19,A31U G69A,0.182
20,G32C G40U,0.086
21,A31U A35C,0.185
22,A31U A35U,0.162
23,G32U A44G,0.0996
24,G32C A64U,0.159

row,Variant,self-cleavage
1,G32C A64G,0.0936
2,G32C A64C,0.183
3,A30U A44U,0.16
4,G32A A47C,0.143
5,G32C U53G,0.0828
6,G32C U53A,0.185
7,A31G G32C,0.0299
8,A31G G32A,0.0999
9,A31G U70A,0.509
10,U33A A43G,0.169
11,A30U U53C,0.041
12,A31G G56U,0.106
13,A31G G56C,0.164
14,G32C C37G,0.15
15,A31U G68A,0.157
16,G32U G69A,0.115
17,G32A G34A,0.07
18,A31G G51U,0.599
19,G32A A64C,0.14
20,A30U G69U,0.149
21,A30U G69A,0.146
22,A31C A59U,0.108
23,U33A U67C,0.104
24,U33C A41U,0.159

row,Variant,self-cleavage
1,U33A C38U,0.0932
2,A31U A45G,0.0267
3,A31U A45U,0.131
4,A30U A47C,0.0639
5,G32U A45C,0.153
6,A31U U58C,0
7,A31U G42C,0.0816
8,A31C C65G,0.116
9,U33A C65U,0.238
10,A30U A43G,0.108
11,G32A C65G,0.102
12,G32A C65A,0.0853
13,G32A U33C,0.119
14,A31U G51C,0.15
15,A31C G51A,0.179
16,G32A U53A,0.0993
17,G32C U33G,0.12
18,G32C U33C,0.0618
19,A31U C48A,0.166
20,A31G C50U,0.266
21,A31G C50G,0.176
22,G32A A49C,0.0198
23,G32A A49U,0.0556
24,G32A C38G,0.1

row,Variant,self-cleavage
1,U33A G51U,0.129
2,U33A G51A,0.177
3,A30U C50G,0.157
4,G32A A44G,0.143
5,G32A A44C,0.0922
6,G32A A44U,0.152
7,A30U G42A,0.11
8,G32C G69A,0.149
9,U33A A71G,0.178
10,U33A U55A,0.0922
11,G32C A61G,0.136
12,A31U G40A,0.117
13,G32U C50A,0.0903
14,A31G A61C,0.16
15,A31G A61U,0.159
16,A31C G69A,0.0915
17,G32U G34U,0.126
18,A31U G54C,0.119
19,G32C G34C,0.101
20,G32C G57A,0.0977
21,G32C G57U,0.072
22,A31U A47G,0.101
23,A31G C65U,0.252
24,G32C U70A,0.0808

row,Variant,self-cleavage
1,G32U U70G,0.108
2,G32U U70C,0.138
3,A31U A49C,0.139
4,A31U A49G,0.121
5,U33A A61G,0.0674
6,U33A A61U,0.167
7,A31U A43C,0.169
8,G32A G40C,0.156
9,A31G A59C,0.173
10,A30U G32C,0.132
11,U33A A64G,0.164
12,U33A A59G,0.106
13,A31G C38U,0.272
14,A31G C38G,0.0773
15,U33C A61C,0.074
16,U33C A61U,0.163
17,G32A U60A,0.191
18,G32C G54U,0.0594
19,G32C G54A,0.0613
20,G32A U67G,0.0549
21,U33C A39G,0.134
22,A31G G54C,0.276
23,A31G A39C,0.253
24,A31G A39U,0.105

row,Variant,self-cleavage
1,G32U C37U,0.161
2,G32U C37A,0.0811
3,A31G G57U,0.23
4,A31U A36C,0.197
5,A31U A36G,0.151
6,A31C G40C,0.0931
7,G32U U33G,0.0653
8,A30U G51A,0.104
9,A31G A35G,0.662
10,A31G A35U,0.378
11,A31G U52A,0.764
12,A31G U52G,0.4
13,A31G U52C,0.508
14,G32A U70C,0.0825
15,G32U G54A,0.105
16,G32U G54U,0.0884
17,A31U A59U,0.201
18,A31U A59C,0.0285
19,G32C U55C,0.0178
20,U33A A44U,0.141
21,A31C G57U,0.0476
22,A31C G57A,0.107
23,A31C G57C,0.189
24,A31G A44G,0.208

row,Variant,self-cleavage
1,A31G A44U,0.205
2,G32A A43C,0.0569
3,G32A A43G,0.141
4,A30U U70A,0.0595
5,A30U U70C,0.123
6,A30U A49C,0.111
7,G32U A49U,0.0712
8,A31G G34A,1.12
9,A31G A71U,0.396
10,G32U C66G,0.19
11,A31U U53A,0.026
12,A31U U53G,0.122
13,A31G C48A,0.164
14,U33A C48G,0.123
15,U33A C48U,0.0718
16,G32C U62C,0.2
17,A31C G54A,0.152
18,A30U C48A,0.209
19,A30U C48G,0.118
20,A30U U60A,0.346
21,G32A A41U,0.396
22,G32U A43C,0.0806
23,G32U A43G,0.0636
24,A30U A64U,0.13

row,Variant,self-cleavage
1,A31C C46G,0.0917
2,A31C C46U,0.187
3,A31C C46A,0.0889
4,A31U C66U,0.0749
5,A31U C66A,0.3
6,U33A C50U,0.105
7,U33A C50A,0.18
8,A30U U58A,0.115
9,U33C A49G,0.123
10,A30U C65U,0.0165
11,A30U C65G,0.228
12,A31C U63A,0.162
13,G32U G68C,0.0784
14,A30U G40C,0.13
15,G32U U67C,0.0935
16,G32C U58C,0.0937
17,U33C A35U,0.162
18,A31C U70G,0.0868
19,G32A C48A,0.128
20,A31C G56C,0.115
21,A31C G56U,0.182
22,A31G A36U,0.306
23,A31G A36C,0.363
24,A31C A64U,0.11

row,Variant,self-cleavage
1,G32C A71C,0.215
2,G32C A71U,0.157
3,G32C A71G,0.238
4,G32U U53A,0.126
5,U33A U58G,0.135
6,U33A U58A,0.0766
7,G32U U63C,0.268
8,G32U U63G,0.113
9,G32A A39U,0.108
10,A31U U55G,0.089
11,A31G C37A,0.158
12,A31G C37G,0.162
13,U33A U70A,0.0761
14,G32U G57A,0.139
15,G32U G57C,0.129
16,U33A A35C,0.0785
17,G32U A36C,0.1
18,G32C C65G,0.0614
19,U33C A36G,0.0993
20,A30U U67A,0.0771
21,A30U U67G,0.176
22,A30U U67C,0.0825
23,G32A A59U,0.167
24,G32U A59U,0.0402

row,Variant,self-cleavage
1,G32U A59C,0.0899
2,A31G G40U,0.168
3,A31G G40C,0.247
4,A31G G40A,0.179
5,A30U A61C,0.069
6,A30U A61U,0.0778
7,G32U C48A,0.0918
8,G32U C48U,0.15
9,A30U G54A,0.137
10,A30U G54U,0.165
11,A30U G68A,0.0299
12,A30U G68U,0.207
13,A30U G68C,0.118
14,A31C A47G,0.108
15,U33A G40C,0.0171
16,A31C U62C,0.0677
17,U33A G42U,0.181
18,U33A G42A,0.168
19,A31C A71G,0.212
20,A31C A71C,0.202
21,A30U G57C,0.0918
22,G32C A36U,0.136
23,G32C A36G,0.0754
24,U33A A45U,0.2

row,Variant,self-cleavage
1,U33C A43U,0.231
2,U33C A43C,0
3,G32U A61G,0.0951
4,A31G U67C,0.118
5,U33A A49U,0.194
6,A31G U53G,0.495
7,A31U A64G,0.0407
8,G32U A64U,0.126
9,G32U A64G,0.162
10,G32U A64C,0.258
11,A31U C37G,0.237
12,A31U U63A,0.0279
13,A31U U63G,0.0484
14,U33A G56U,0.156
15,U33A G56A,0.239
16,A31G A64C,0.0777
17,A31G A64G,0.284
18,A31C U67G,0.0719
19,U33A G34A,0.0987
20,U33A G34C,0.777
21,G32U G40A,0.122
22,G32A G69C,0.163
